B1: XPA23 light chain S53D (Fab, V domains shown)
VH: EVQLLESGGGLVQPGGSLRLSCAASGFTFSKYFMFWVRQAPGKGLEWVSVISPSGGMTRYADSVKGRFTISRDNSKNTLYLQMNSLRAEDTAVYYCARVGYGGNSDYWGQGTLVTVSS
VL: DIQMTQSPSSVSASVGDRLTIICRASQDINRWLAWYQQTPGNAPKLLIHSATDLQSGVPSRFSGSGSGTDFTLTINSLQPEDFATYYCQQADSFPLTFGGGTKVEIK
B2: XPA23 light chain T52D (Fab, V domains shown)
VH: B1 VH
VL: B1 VL with T52D, D53S
B3: XPA23 light chain S53Y (Fab, V domains shown)
VH: B1 VH
VL: B1 VL with D53Y
B4: XPA23 light chain T52A (Fab, V domains shown)
VH: B1 VH
VL: B1 VL with T52A, D53S
B5: XPA23 light chain S93E (Fab, V domains shown)
VH: B1 VH
VL: B1 VL with D53S, S93E
B6: XPA23 light chain S93W (Fab, V domains shown)
VH: B1 VH
VL: B1 VL with D53S, S93W
B7: XPA23 light chain T52E (Fab, V domains shown)
VH: B1 VH
VL: B1 VL with T52E, D53S
B8: XPA23 light chain T52G (Fab, V domains shown)
VH: B1 VH
VL: B1 VL with T52G, D53S
B9: XPA23 light chain S53Q (Fab, V domains shown)
VH: B1 VH
VL: B1 VL with D53Q
B10: XPA23 light chain S53F (Fab, V domains shown)
VH: B1 VH
VL: B1 VL with D53F
B11: XPA23 light chain S53W (Fab, V domains shown)
VH: B1 VH
VL: B1 VL with D53W
B12: XPA23 light chain S93H (Fab, V domains shown)
VH: B1 VH
VL: B1 VL with D53S, S93H
B13: XPA23 light chain S53R (Fab, V domains shown)
VH: B1 VH
VL: B1 VL with D53R
B14: XPA23 light chain S53E (Fab, V domains shown)
VH: B1 VH
VL: B1 VL with D53E
B15: XPA23 light chain T52I (Fab, V domains shown)
VH: B1 VH
VL: B1 VL with T52I, D53S
B16: XPA23 light chain S93F (Fab, V domains shown)
VH: B1 VH
VL: B1 VL with D53S, S93F
B17: XPA23 light chain S93Y (Fab, V domains shown)
VH: B1 VH
VL: B1 VL with D53S, S93Y
B18: XPA23 light chain S93D (Fab, V domains shown)
VH: B1 VH
VL: B1 VL with D53S, S93D
B19: XPA23 light chain S93K (Fab, V domains shown)
VH: B1 VH
VL: B1 VL with D53S, S93K
B20: XPA23 light chain T52H (Fab, V domains shown)
VH: B1 VH
VL: B1 VL with T52H, D53S
B21: XPA23 light chain S53N (Fab, V domains shown)
VH: B1 VH
VL: B1 VL with D53N
B22: XPA23 light chain T52K (Fab, V domains shown)
VH: B1 VH
VL: B1 VL with T52K, D53S
B23: XPA23 light chain S93R (Fab, V domains shown)
VH: B1 VH
VL: B1 VL with D53S, S93R
B24: XPA23 light chain T52F (Fab, V domains shown)
VH: B1 VH
VL: B1 VL with T52F, D53S
B25: XPA23 light chain T52N (Fab, V domains shown)
VH: B1 VH
VL: B1 VL with T52N, D53S
B26: XPA23 light chain T52P (Fab, V domains shown)
VH: B1 VH
VL: B1 VL with T52P, D53S
B27: XPA23 light chain S93Q (Fab, V domains shown)
VH: B1 VH
VL: B1 VL with D53S, S93Q
B28: XPA23 light chain T52L (Fab, V domains shown)
VH: B1 VH
VL: B1 VL with T52L, D53S
B29: XPA23 light chain S53K (Fab, V domains shown)
VH: B1 VH
VL: B1 VL with D53K
B30: XPA23 light chain S93N (Fab, V domains shown)
VH: B1 VH
VL: B1 VL with D53S, S93N

Where a chain is given by its changes, count along the chain named. Names may count otherwise.

This experiment has as its target T1, IL-1β (UniProt P01584 117-269).
T1 construct: Antigen immobilised on the Biacore chip
Nature of the experiment: Biacore, periplasmic extract. For orientation: In SPR one partner is held on a chip, and binding of the other changes the refractive index at the surface.
On to B1, for which the binding result is on record as “no binding”. As to B2, the “fold difference in affinity vs original” value amounted to 0.72 fold. Still for that read-out and setting: with B3 the figure was 1.23 fold. On the same count and under the same terms, with B4 the figure was 0.66 fold; with B5, 3.71 fold. The same measure, in the same setting: with B6 the figure was 5.49 fold; with B7, 0.61 fold.

For B8, the binding result was “no binding”. Regarding B9, the “fold difference in affinity vs original” value came to 1.09 fold.

B10: the “fold difference in affinity vs original” value worked out at 1.24 fold. For the molecule B11, the “fold difference in affinity vs original” value was 1.11 fold. B12: the “fold difference in affinity vs original” value was 1.08 fold.

As for B13, the “fold difference in affinity vs original” value amounted to 3.29 fold. The same measure, in the same setting: under B14 stands 1.13 fold. Same read-out and setting: under B15 stands 0.8 fold; under B16, 1.32 fold; under B17, 1.45 fold. Consider B18, for which the “fold difference in affinity vs original” value came to 4.59 fold. Still for that read-out and setting: with B19 the figure was 0.86 fold. The same measure, in the same setting: with B20 the figure was 0.91 fold; with B21, 1.23 fold; with B22, 3.23 fold. Still for that read-out and setting: with B23 the figure was 0.91 fold; with B24, 1.05 fold; with B25, 0.83 fold. B26: the “fold difference in affinity vs original” value is 1.08 fold.

B27: the “fold difference in affinity vs original” value turned out to be 1.54 fold. In the case of B28, the “fold difference in affinity vs original” value was 0.78 fold. The same measure, in the same setting: under B29 stands 4.07 fold; under B30, 3.76 fold.

Source of the values: patent publication US20110118131A1 (published 2011).
